Data on five molecules can be found in patent US20060177831A1 (published 2006).

To fix the notation:
B4: c-MET extracellular domain (ECD)/Fc chimera (Fc fusion, not shown: a dimerising Fc or GST)
chain: ECKEALAKSEMNVNMKYQLPNFTAETPIQNVILHEHHIFLGATNYIYVLNEEDLQKVAEYKTGPVLEHPDCFPCQDCSSKANLSGGVWKDNINMALVVDTYYDDQLISCGSVNRGTCQRHVFPHNHTADIQSEVHCIFSPQIEEPSQCPDCVVSALGAKVLSSVKDRFINFFVGNTINSSYFPDHPLHSISVRRLKETKDGFMFLTDQSYIDVLPEFRDSYPIKYVHAFESNNFIYFLTVQRETLDAQTFHTRIIRFCSINSGLHSYMEMPLECILTEKRKKRSTKKEVFNILQAAYVSKPGAQLARQIGASLNDDILFGVFAQSKPDSAEPMDRSAMCAFPIKYVNDFFNKIVNKNNVRCLQHFYGPNHEHCFNRTLLRNSSGCEARRDEYRTEFTTALQRVDLFMGQFSEVLLTSISTFIKGDLTIANLGTSEGRFMQVVVSRSGPSTPHVNFLLDSHPVSPEVIVEHTLNQNGYTLVITGKKITKIPLNGLGCRHFQSCSQCLSAPPFVQCGWCHDKCVRSEECLSGTWTQQICLPAIYKVFPNSAPLEGGTRLTICGWDFGFRRNNKFDLKKTRVLLGNESCTLTLSESTMNTLKCTVGPAMNKHFNMSIIISNGHGTTQYSTFSYVDPVITSISPKYGPMAGGTLLTLTGNYLNSGNSRHISIGGKTCTLKSVSNSILECYTPAQTISTEFAVKLKIDLANRETSIFSYREDPIVYEIHPTKSFISGGSTITGVGKNLNSVSVPRMVINVHEAGRNFTVACQHRSNSEIICCTTPSLQQLNLQLPLKTKAFFMLDGILSKYFDLIYVHNPVFKPFEKPVMISMGNENVLEIKGNDIDPEAVKGEVLKVGNKSCENIHLHSEAVLCTVPNDLLKLNSELNIEWKQAISSTVLGKVIVQPDQNFT

Assay [1] concerns the target B4. Kind of assay: binding ELISA on c-MET ECD/Fc, NiNTA-pure.
Assay [2] concerns the target B4. The experiment in a line: AlphaScreen competition with bn-HGF for c-MET ECD/Fc, NiNTA-pure. On the technique in general: Bead proximity is the source of the signal in Alpha formats.
Assay [3] has as its target B4. Kind of assay: AlphaScreen competition with bn-HGF for c-MET ECD/Fc, Q-pure.
A further assay deals with recombinant human HGF (human, UniProt P14210 32-728). Kind of assay: cell-based or functional assay.
Chain of recombinant human HGF (P14210 32-728 limits assumed): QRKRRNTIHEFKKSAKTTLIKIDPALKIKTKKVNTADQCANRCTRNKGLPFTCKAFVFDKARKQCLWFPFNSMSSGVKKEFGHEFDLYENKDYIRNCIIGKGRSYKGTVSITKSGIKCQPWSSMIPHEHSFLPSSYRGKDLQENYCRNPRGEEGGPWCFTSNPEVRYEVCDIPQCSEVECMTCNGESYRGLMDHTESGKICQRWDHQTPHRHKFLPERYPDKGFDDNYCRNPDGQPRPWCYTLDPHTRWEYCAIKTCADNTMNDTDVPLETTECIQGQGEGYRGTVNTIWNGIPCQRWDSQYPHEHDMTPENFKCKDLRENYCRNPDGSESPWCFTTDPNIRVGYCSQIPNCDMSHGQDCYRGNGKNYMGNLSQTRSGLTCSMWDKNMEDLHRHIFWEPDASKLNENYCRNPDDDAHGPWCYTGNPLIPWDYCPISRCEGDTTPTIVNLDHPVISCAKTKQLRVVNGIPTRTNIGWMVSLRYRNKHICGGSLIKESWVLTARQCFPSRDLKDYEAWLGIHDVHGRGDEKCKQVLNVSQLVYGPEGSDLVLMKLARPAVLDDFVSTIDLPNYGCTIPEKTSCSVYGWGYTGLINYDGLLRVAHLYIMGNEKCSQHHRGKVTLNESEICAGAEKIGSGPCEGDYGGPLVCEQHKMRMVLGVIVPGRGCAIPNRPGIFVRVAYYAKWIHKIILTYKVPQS

B1: Anti-c-MET Avimer monomer M21 (designed binder)
chain: CVSNEFTCRSTKRCVPQEWVCDGVNDCEDGSDETGCPKHTSLQ
notes: Assayed protein also bears HA and 6His tags; also called C382
The Kd is the constant that tells how readily two partners part at equilibrium. Lower therefore signals tighter binding. As a reminder, the IC50 is the concentration at which inhibition is half-maximal. High values mean lower potency, low ones higher potency. With B1, the Kd in assay [1] came to 116 nM. In addition, in assay [2], the half-inhibitory concentration (IC50) was determined as 83 nM.

B2: Anti-c-MET Avimer monomer M38 (designed binder)
chain: CVSNEFTCRSTKRCVPQEWVCDGVNDCEDGSDETGCPKHTSLQ
notes: Assayed protein also bears HA and 6His tags; also called C399
As for B2, binding in assay [1] was characterised by a dissociation constant (Kd) of 95 nM. In addition, the values for the IC50 in assay [3] and in assay [2] were 881 nM and 50 nM, respectively.

B3: Anti-c-MET Avimer monomer M13 (designed binder)
chain: CLADEFQCHSTKRCVPRHWLCDGVNDCEDGSDEKSCSQDPEFHKVSLQ
notes: Assayed protein also bears HA and 6His tags; also called C239
In assay [2], B3 showed an IC50 of 247 nM.

In the case of B4, the “IC50, inhibition of HGF-induced proliferation of serum-starved A549-SC cells (tritiated thymidine)” value with recombinant human HGF is 1.73 nM.

B5: Anti-c-MET Avimer monomer M20 (designed binder)
chain: CEADEFRCRSTGRCISVDWRCDGVSDCEDSSDEESCESTAPTSLQ
notes: Assayed protein also bears HA and 6His tags; also called C381
Molecule B5 showed a Kd in assay [1] of 158 nM. Further, the results for the IC50 in assay [3] and in assay [2] were 186 nM and 22 nM, respectively.
